Paper PMC9495943, “Recombinant Expression of Archaeal Superoxide Dismutases in Plant Cell Cultures: A Sustainable Solution with Potential Application in the Food Industry” (Antioxidants, 2022)

Biological target: the molecule itself
Test: SEC; Superdex 200 calibrated with standard protein markers; 50 mM Tris-HCl pH 7.5, 50 mM NaCl; partially purified SOD (ultrafiltration retentate of transformed tomato cell extract) loaded; apparent native mass compared with the theoretical mass of a homodimer

B1: Superoxide dismutase (Mn/Fe-dependent SOD) from Saccharolobus solfataricus P2 (enzyme, UniProt P80857 1-211, looked up)
chain: MTLQIQFKKYELPPLPYKIDALEPYISKDIIDVHYNGHHKGYVNGANSLLERLEKVVKGDLQTGQYDIQGIIRGLTFNINGHKLHALYWENMAPSGKGGGKPGGALADLINKQYGSFDRFKQVFTETANSLPGTGWAVLYYDTESGNLQIMTFENHFQNHIAEIPIILILDEFEHAYYLQYKNKRADYVNAWWNVVNWDAAEKKLQKYLTK
notes: Mn/Fe-dependent superoxide dismutase of Saccharolobus solfataricus P2; whole CDS (636 bp) amplified from genomic DNA and expressed in tomato cells; subunit of approximately 24 kDa; ORF cloned into the NcoI-XbaI sites of pCK-EGFP, then into pBI121; No tag is mentioned; also called SODSs; sodSs product
- stoichiometry N: 2
